Test results as given in patent publication US12715909 (ENTHERA S R L, dated 2026).
Residue numbers refer to the chain shown, from its start. Values belong to the binder of their own block, whether it stands above or below them.

Tests used:
Experiment in all cases: ELISA, scFv, secondary screening
[1] = molecular target: T1, human IGFBP6 (human, UniProt P24592 28-240, limits assumed)
T1 construct: Bought protein
T1 sequence (looked up): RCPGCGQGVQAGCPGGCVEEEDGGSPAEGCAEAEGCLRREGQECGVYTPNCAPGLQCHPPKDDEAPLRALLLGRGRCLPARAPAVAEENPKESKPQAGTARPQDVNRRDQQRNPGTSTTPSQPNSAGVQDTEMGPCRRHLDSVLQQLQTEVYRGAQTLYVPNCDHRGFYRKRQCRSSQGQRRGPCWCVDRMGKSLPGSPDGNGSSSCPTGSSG
Procedure: (§1) At the end of the discovery process, each selection output was screened for antigen-specific antibodies and the binding characteristics of monoclonal antibody clones was analysed. For this purpose, 3072 single colonies were used for scFv antibody production. […] 192 of those ELISA positive clones were selected for a secondary screening. For that purpose, a second batch of scFv were produced and tested on a broader panel of antigens: Streptavidin+biotinylated human IGFBP5, Streptavidin+biotinylated murine IGFBP5, Streptavidin, BSA, Human IGFBP1, Human IGFBP2, Human IGFBP3, Human IGFBP4, Human IGFBP5 and Human IGFBP6. […] Binding to human IGFBP1, human IGFBP2, human IGFBP3, human IGFBP4 and human IGFBP6 was not detected. […] The scFv DNA sequence was amplified by PCR and cloned into YUMAB's mammalian scFv-Fc expression vector, resulting in a genetic fusion of the scFv with a human IgG4 Fc. Bacterial clones with a correctly cloned scFv gene were used for isolation of transfection grade DNA. The DNA was used for the transient transfection of HEK cells which produced and secreted the antibody into the culture medium. The antibodies were purified by affinity chromatography (Protein A) and re-buffered in PBS. The protein concentration was determined by UV/VIS spectrometry and purity was checked by Coomassie staining. 13 of the 15 antibodies could be successfully produced in the scFv-Fc format.

[2] = molecular target: T2, human IGFBP2 (human, UniProt P18065 37-325, limits assumed)
T2 construct: Bought protein
T2 sequence (looked up): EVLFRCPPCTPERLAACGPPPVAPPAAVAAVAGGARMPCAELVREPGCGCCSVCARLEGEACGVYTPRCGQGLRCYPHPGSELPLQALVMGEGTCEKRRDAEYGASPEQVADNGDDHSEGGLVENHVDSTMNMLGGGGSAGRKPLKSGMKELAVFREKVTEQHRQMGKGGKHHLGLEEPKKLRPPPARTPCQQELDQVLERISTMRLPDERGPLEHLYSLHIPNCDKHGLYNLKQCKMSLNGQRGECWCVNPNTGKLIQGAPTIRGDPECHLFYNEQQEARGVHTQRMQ
Procedure: as §1

[3] = molecular target: T3, human IGFBP4 (human, UniProt P22692 22-258)
T3 construct: Bought protein
T3 sequence (looked up): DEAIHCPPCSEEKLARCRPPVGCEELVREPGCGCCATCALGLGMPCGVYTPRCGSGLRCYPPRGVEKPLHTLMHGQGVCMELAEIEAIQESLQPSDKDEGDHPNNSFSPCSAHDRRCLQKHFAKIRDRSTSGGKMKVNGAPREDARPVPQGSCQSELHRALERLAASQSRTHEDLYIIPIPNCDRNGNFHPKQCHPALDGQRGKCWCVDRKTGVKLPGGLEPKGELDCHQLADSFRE
Procedure: as §1

[4] = molecular target: T4, human IGFBP5 (human, UniProt P24593 21-272)
T4 construct: Bought protein; in BLI it was in solution; also called hIGFBP-5
Procedure: as §1

[5] = molecular target: T5, human IGFBP1 (human, UniProt P08833 26-259)
T5 construct: Bought protein
T5 sequence (looked up): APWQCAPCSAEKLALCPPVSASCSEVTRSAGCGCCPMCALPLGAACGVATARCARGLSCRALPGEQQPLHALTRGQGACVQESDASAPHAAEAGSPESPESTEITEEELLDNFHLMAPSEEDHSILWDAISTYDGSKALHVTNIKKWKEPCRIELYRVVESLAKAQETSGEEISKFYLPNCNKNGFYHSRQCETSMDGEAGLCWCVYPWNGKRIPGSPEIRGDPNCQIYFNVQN
Procedure: as §1

[6] = molecular target: T6, human IGFBP3 (human, UniProt P17936 28-291)
T6 construct: Bought protein
Procedure: as §1

[7] = molecular target: T7, mouse IGFBP5 (mouse, UniProt Q07079 20-271)
T7 construct: Bought protein; in solution in BLI; also called mIGFBP-5; murine IGFBP5
Procedure: as §1

T4 sequence (P24593 21-272 limits assumed): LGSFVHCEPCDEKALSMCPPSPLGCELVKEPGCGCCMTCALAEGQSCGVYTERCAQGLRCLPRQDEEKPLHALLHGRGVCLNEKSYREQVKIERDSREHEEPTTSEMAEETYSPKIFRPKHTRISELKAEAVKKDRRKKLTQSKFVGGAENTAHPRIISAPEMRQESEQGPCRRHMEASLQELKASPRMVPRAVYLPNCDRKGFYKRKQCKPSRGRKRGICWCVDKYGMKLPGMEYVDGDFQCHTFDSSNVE
T6 sequence (P17936 28-291 limits assumed): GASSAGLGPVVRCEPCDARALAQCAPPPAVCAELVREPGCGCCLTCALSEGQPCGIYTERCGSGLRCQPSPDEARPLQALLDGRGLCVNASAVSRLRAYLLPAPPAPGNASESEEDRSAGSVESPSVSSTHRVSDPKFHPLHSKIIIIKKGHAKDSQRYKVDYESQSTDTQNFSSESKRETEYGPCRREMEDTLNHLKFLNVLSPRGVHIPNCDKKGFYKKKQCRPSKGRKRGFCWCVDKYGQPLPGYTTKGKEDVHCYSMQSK
T7 sequence (Q07079 20-271 limits assumed): as the sequence (P24593 21-272 limits assumed) above, with R87G, V90T, I116V, I157V, S159P, L183F, T245A counted along it

B4: E05 scFv (scFv, V domains shown)
VH: EVQLVESGGGLVQPGGSLKLSCAASGFTFSGYGMNWVRQAPGKGLEWVSYVGSSSSTIYYADSVKGRFTISRDNANNSLYLQMNSLRAEDTAVYYCARGLGGNWGQGTMVTVSS
VL: QPGLTQPPSASGAPGQRVTISCSGSRSNIGSNYVHWYQQLPGTAPKLIIYRNDQRPSGVPARFSASKSGTSASLAISGLRSEDEADYYCAAWDDGLSVLFGGGTKLTVL
notes: scFv as screened by ELISA
- binding result [1]: no binding
- binding result [2]: no binding
- binding result [3]: no binding
- binding result [4]: binds
- binding result [5]: no binding
- binding result [6]: no binding
- binding result [7]: binds

B5: C02 scFv (scFv, V domains shown)
VH: QVQLVQSGAEVKKPGASVKVSCKASGYTFTSYGISWVRQAPGQGLEWMGWISAYNGNTNYAQKLQGRVTMTTDTSTSTAYMELRSLRSDDTAVYYCARGRGVIDYWGQGTLVTVSS
VL: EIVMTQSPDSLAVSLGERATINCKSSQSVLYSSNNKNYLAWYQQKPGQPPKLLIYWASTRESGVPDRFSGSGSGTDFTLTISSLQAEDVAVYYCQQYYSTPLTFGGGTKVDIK
notes: scFv as screened by ELISA
- binding result [1]: no binding
- binding result [2]: no binding
- binding result [3]: no binding
- binding result [4]: binds
- binding result [5]: no binding
- binding result [6]: no binding
- binding result [7]: binds

B7: C11 scFv (scFv, V domains shown)
VH: EVQLVESGGGVVQPGRSLRLSCAASGFTFSSYGMHWVRQAPGKGLEWVAVISYDGSNKYYADSVKGRFTISRDNSKNTLYLQMNSLRAEDTAVYYCARGDYSDTSGTDFFQHWGQGTQVTVSS
VL: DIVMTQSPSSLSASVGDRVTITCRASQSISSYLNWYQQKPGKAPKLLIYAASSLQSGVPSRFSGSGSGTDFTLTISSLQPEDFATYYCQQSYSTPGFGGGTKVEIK
notes: scFv as screened by ELISA
- binding result [1]: no binding
- binding result [2]: no binding
- binding result [3]: no binding
- binding result [4]: binds
- binding result [5]: no binding
- binding result [6]: no binding
- binding result [7]: binds

B8: D12 scFv (scFv, V domains shown)
VH: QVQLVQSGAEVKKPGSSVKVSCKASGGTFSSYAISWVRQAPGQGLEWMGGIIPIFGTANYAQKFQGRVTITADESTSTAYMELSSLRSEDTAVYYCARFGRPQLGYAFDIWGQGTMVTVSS
VL: ETTLTQSPGTLSVSPGDRATLSCRASQSLSADYLAWYQQKPGQAPRLLIYGASTRATGIPARFSGSGSGTEFTLTVSSLQSEDFAVYYCQQNDNWPYTFGQGTKLEIK
notes: scFv as screened by ELISA
- binding result [1]: no binding
- binding result [2]: no binding
- binding result [3]: no binding
- binding result [4]: binds
- binding result [5]: no binding
- binding result [6]: no binding
- binding result [7]: binds

B9: E03 scFv (scFv, V domains shown)
VH: QVQLVQSGAEVKKPGSSVKVSCKASGGTFSSYAISWVRQAPGQGLEWMGGITPIFGTANYAQKFQGRVTITADESTSTAYMELSSLRSEDTAVYYCARAGILTGYYFDYWGQGTLVTVSS
VL: NFMLTQPHSVSESPGKTVTISCTRSSGSIASNYVQWYQQRPGSSPTTVIYEDNQRPSGVPDRFSGSIDSSSNSASLTISGLKTEDEADYYCQSYDSSNRPWVFGGGTKLTVL
notes: scFv as screened by ELISA
- binding result [1]: no binding
- binding result [2]: no binding
- binding result [3]: no binding
- binding result [4]: binds
- binding result [5]: no binding
- binding result [6]: no binding
- binding result [7]: binds

B10: F04 scFv (scFv, V domains shown)
VH: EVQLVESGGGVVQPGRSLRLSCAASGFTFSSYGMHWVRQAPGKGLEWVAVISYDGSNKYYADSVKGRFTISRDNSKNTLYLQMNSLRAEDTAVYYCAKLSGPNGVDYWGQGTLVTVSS
VL: SSELTQDPSVSVALGQTVTITCQGDSVRKYYTNWYQQKPGQAPILVLYGKNYRPSGIPDRFSGSTSGDTAYLTITGAQAEDAADYYCHSRDTSDIHLNVFGTGTKVTVL
notes: scFv as screened by ELISA
- binding result [1]: no binding
- binding result [2]: no binding
- binding result [3]: no binding
- binding result [4]: binds
- binding result [5]: no binding
- binding result [6]: no binding
- binding result [7]: binds

Now from value to binder:

- binding result [1]: no binding
- binding result [2]: no binding
- binding result [3]: no binding
- binding result [4]: binds
- binding result [5]: no binding
- binding result [6]: no binding
- binding result [7]: binds
B1: D10 scFv (scFv, V domains shown)
VH: QVQLVQSGAEVKKPGASVKVSCKASGYTFTSYGISWVRQAPGQGLEWMGWISAYNGNTNYAQKLQGRVTMTTDTSTSTAYMELRSLRSDDTAVYYCARDRYLGWFDPWGQGTLVTVSS
VL: QSALTQPASVSGSPGQSITISCTGTSSDVGGYNYVSWYQQHPGKAPKLMIYEVSNRPSGVSNRFSGSKSGNTASLTISGLQAEDEADYYCSSYTSSSTPYVFGTGTKLTVL
notes: scFv as screened by ELISA

- binding result [1]: no binding
- binding result [2]: no binding
- binding result [3]: no binding
- binding result [4]: binds
- binding result [5]: no binding
- binding result [6]: no binding
- binding result [7]: binds
B2: C12 scFv (scFv, V domains shown)
VH: QVQLVQSGAEVKKPGSSVKVSCKASGGTFSSYAISWVRQAPGQGLEWMGGIIPIFGTANYAQKFQGRVTITADESTSTAYMELSSLRSEDTAVYYCATLGRELSFDYWGQGTLVTVSS
VL: DIVMTQSPSSLSASVGDRVTITCRASQSISSYLNWYQQKPGKAPKLLIYAASSLQSGVPSRFSGSGSGTDFTLTISSLQPEDFATYYCQQSYSESWTFGQGTTVDIK
notes: scFv as screened by ELISA

- binding result [1]: no binding
- binding result [2]: no binding
- binding result [3]: no binding
- binding result [4]: binds
- binding result [5]: no binding
- binding result [6]: no binding
- binding result [7]: binds
B3: E02 scFv (scFv, V domains shown)
VH: QMQLVQSGAEVKKPGSSVKVSCKASGGTFSSYAISWVRQAPGQGLEWMGGIIPIFGTANYAQKFQGRVTITADESTSTAYMELSSLRSEDTAVYYCATMSVAGPSISFDYWGQGTLVTVSS
VL: B2 VL with V3Q, T20A, T22P, S56R, Q90E, S91T, E94N, S95L, T103K, D105E
notes: scFv as screened by ELISA

- binding result [1]: no binding
- binding result [2]: no binding
- binding result [3]: no binding
- binding result [4]: binds
- binding result [5]: no binding
- binding result [6]: no binding
- binding result [7]: binds
B6: F05 scFv (scFv, V domains shown)
VH: B5 VH with V102S, I103F, Y105P
VL: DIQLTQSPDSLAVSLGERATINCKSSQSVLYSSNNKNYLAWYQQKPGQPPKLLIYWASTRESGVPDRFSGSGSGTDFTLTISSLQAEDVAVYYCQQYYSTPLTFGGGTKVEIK
notes: scFv as screened by ELISA

- binding result [1]: no binding
- binding result [2]: no binding
- binding result [3]: no binding
- binding result [5]: no binding
- binding result [6]: no binding
B11: B09 scFv (scFv, V domains shown)
VH: QVQLVQSGAEVKKPGASVKVSCKASGYTFTSYGISWVRQAPGQGLEWMGWISAYNGNTNYAQKLQGRVTMTTDTSTSTAYMELRSLRSDDTAVYYCARDLAVGTHGDYWGQGTLVTVSS
VL: QSALTQPASVSGSPGQSITISCTGTSSDVGGYNYVSWYQQHPGKAPKLMIYEVSNRPSGVSNRFSGSKSGNTASLTISGLQAEDEADYYCSSYTSSSTLEVVFGGGTKLTVL
notes: scFv as screened by ELISA

- binding result [1]: no binding
- binding result [2]: no binding
- binding result [3]: no binding
- binding result [4]: binds
- binding result [5]: no binding
- binding result [6]: no binding
- binding result [7]: binds
B12: B11 scFv (scFv, V domains shown)
VH: QVQLVQSGAEVKKPGSSVKVSCKASGGTFSSYAISWVRQAPGQGLEWMGGIIPIFGTANYAQKFQGRVTITADKSTSTAYMELSSLRSEDTAVYYCARNVRLPGWFDPWGQGTLVTVSS
VL: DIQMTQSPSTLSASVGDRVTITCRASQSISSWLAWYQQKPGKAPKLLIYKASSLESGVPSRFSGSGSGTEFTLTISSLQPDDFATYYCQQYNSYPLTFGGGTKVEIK
